Source: article PMC5450713 (Toxins, 2017)

Key:
[1] = molecular target: trypsin-treated Vip3Ag4 (complex of the ~65 kDa and ~21 kDa products of proteolysis) (Bacillus thuringiensis) (UniProt I6LPV9); assay: SEC; SEC of trypsin-treated recombinant Vip3Ag4 compared with unprocessed material; fractions of the major peak analysed by SDS PAGE
[2] = molecular target: the molecule itself; assay: SEC-MALS; Superdex 200 10/300 Increase, 100 uL at 1.0 mg/mL, 20 mM TrisHCl, 300 mM NaCl, pH 8.0, 0.7 mL/min
[3] = molecular target: the molecule itself; assay: SEC; Hi-Prep 16/60 Sephacryl S-300, 20 mM TrisHCl pH 8.0, 300 mM NaCl, 0.5 mL/min, calibrated with gel filtration standards; initial Vip3Ag4 preparation after nickel affinity

| Molecule | stoichiometry N [1] | stoichiometry N [2] | stoichiometry N [3] |
| --- | --- | --- | --- |
| trypsin-treated Vip3Ag4 (complex of the ~65 kDa and ~21 kDa products of proteolysis) (from UniProt I6LPV9 1-182; I6LPV9 199-787) | 4 | – | – |
| recombinant His-tagged Vip3Ag4 protein (natural protein, Bacillus thuringiensis, UniProt I6LPV9 1-787, looked up, Expected size with His-tag 91.38 kDa; also called Vip3Ag4 protoxin; unprocessed Vip3Ag4; source: E. coli BL21(DE3), pET28b, purified (Protino Ni-TED column, Sephacryl S-300 size exclusion); not shown: His tag, N-terminal, kept) MNKNNTKLNARALPSFIDYFNGIYGFATGIKDIMNMIFKTDTGGNLTLDEILKNQQLLNEISGKLDGVNGSLNDLIAQGNLNTELSKEILKIANEQNQVLNDVNNKLNAINTMLHIYLPKITSMLNDVMKQNYALSLQIEYLSKQLQEISDKLDVINVNVLINSTLTEITPAYQRMKYVNEKFEDLTFATETTLKVKKNSSPADILDELTELTELAKSVTKNDVDGFEFYLNTFHDVMVGNNLFGRSALKTASELIAKENVKTSGSEVGNVYNFLIVLTALQAKAFLTLTTCRKLLGLADIDYTFIMNEHLDKEKEEFRVNILPTLSNTFSNPNYAKAKGSNEDAKIIVEAKPGYALVGFEMSNDSITVLKAYQAKLKQDYQVDKDSLSEIVYGDMDKLLCPDQSEQIYYTNNIAFPNEYVITKITFTKKMNSLRYEATANFYDSSTGDIDLNKTKVESSEAEYSTLSASTDGVYMPLGIISETFLTPINGFGIVVDENSKLVNLTCKSYLREVLLATDLSNKETKLIVPPIGFISNIVENGNLEGENLEPWKANNKNAYVDHTGGVNGTKALYVHKDGEFSQFIGDKLKSKTEYVIQYIVKGKASILLKDEKNGDCIYEDTNNGLEDFQTITKSFITGTDSSGVHLIFNSQNGDEAFGENFTISEIRLSEDLLSPELINSDAWVGSQGTWISGNSLTINSNVNGTFRQNLSLESYSTYSMNFNVNGFAKVTVRNSREVLFEKNYPQLSPKDISEKFTTAANNTGLYVELSRFTSGGAINFRNFSIK | – | 4 | ~4 |
